This passage reports Kd results from paper PMC9610768 (2022).

By Kd is commonly meant the free concentration of one partner at which half of the binding sites on the other are occupied at equilibrium, for simple one-to-one binding.

The experiment deals with actin filament (skeletal muscle alpha-actin) (Oryctolagus cuniculus, UniProt P68135). Nature of the experiment: co-sedimentation.

B1: GFP-Rng2CHD CHD (protein)
chain: MDVNVGLSRLQSQAGAPVGTKGSNTRLAAKQRETLQAYDYLCRVDEAKKWIEECLGTDLGPTSTFEQSLRNGVVLALLVQKFQPDKLIKIFYSNELQFRHSDNINKFLDFIHGIGLPEIFHFELTDIYEGKNLPKVIYCIHALSYFLSMQDLAPPLIKSDENLSFTDEDVSIIVRRLRQSNVILPNFKA
modifications: GFP fused to Rng2CHD N-terminus, phalloidin-stabilized actin filaments
Consider B1, for which the Kd stood at 3.4 µM.

B2: Rng2CHD CHD (protein)
chain: MDVNVGLSRLQSQAGAPVGTKGSNTRLAAKQRETLQAYDYLCRVDEAKKWIEECLGTDLGPTSTFEQSLRNGVVLALLVQKFQPDKLIKIFYSNELQFRHSDNINKFLDFIHGIGLPEIFHFELTDIYEGKNLPKVIYCIHALSYFLSMQDLAPPLIKSDENLSFTDEDVSIIVRRLRQSNVILPNFKA
modifications: phalloidin-stabilized actin filaments
In turn, B2 came in with an equilibrium dissociation constant (Kd) of 0.92 µM.
